Results from publication PMC6902690 (The FASEB Journal, 2019).

Target: factor H binding protein variant 1, recombinant (Neisseria meningitidis serogroup B …, UniProt Q9JXV4, strain)
Assay: Gyrolab immunoassay; biotinylated fHbp v1, v2 or v3 as capture reagent (100 µg/ml); Fabs at 10 µg/ml in Rexxip H; detection with goat anti-human IgG Fab fragment specific-Alexa 647 (25 nM); Bioaffy 200 CDs, 3-step method; positive when the fluorescent signal was higher than 10
Details: both partners purified

B1: huFab 1E6 (recombinant Fab produced in E. coli) (Fab, V domains shown)
VH: EVQLVQSGAEVKKPGSSVKVSCKASGGTVIDYPITWVRQAPGQGLEWVGGFVPLFRTSNYGQKFQGRVTITADKSTSTASMELNSLTSEDTAIYYCARGDTAMGPFDYWGQGTLVTVSS
VL: SYVLTQPPSLSVAPGKTATLTCGGNNIAGKTVHWYQQRPGQAPVLVISYDSDRPSGIPERFSGSNSANTATLTISRVEAGDEADYYCQVWDRNSDHWVFGGGTKLTVL
- binding result: binds
